Measurements: the supplement of paper PMC9170038

Tested on: K4 kissing-loop RNA reporter
Test: apparent KD of K4 kissing-loop reporter; higher = weaker reporter binding
Conditions: Eterna round: R107
Protocol: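 RNA-MaP round R107: designed RNA switches with theophylline, tryptophan, arginine or FMN aptamers are transcribed on-chip within common flanks. They are titrated with a labelled K4 kissing-loop RNA reporter in RNA-MaP buffer (100 mM Tris pH 7.5, 80 mM KCl, 4 mM MgCl2), without ligand or with the indicated ligand. Median apparent KD per design.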

[1] = input ligand: theophylline 20 uM
[2] = input ligand: tryptophan 2.4 mM
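Further: bound reporter read as fluorescence of individual clusters on recovered sequencing chips by microscopy, with normalized cluster intensities fitted with a binding model.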

Sequence | apparent KD of K4 kissing-loop reporter (input ligand: FMN 200 uM) | apparent KD of K4 kissing-loop reporter (input ligand: arginine 13.2 mM) | apparent KD of K4 kissing-loop reporter (input ligand: none) | apparent KD of K4 kissing-loop reporter [1] | apparent KD of K4 kissing-loop reporter [2]
GUGGGCAUAGCAGGAUAUCCAUAUUAACAGGAGUCCUCGCCAGUGAUGUUGGAAAGGUACCGGAGUGGAGAAGGGCUCCUACGUA [Anbiratien] | 594 nM | 782 nM | 813 nM | 757 nM | 515 nM
GUGGUACAGGCGGCCGCCACUAGUGAUGUUAGUGAUAGAAGAUAUAGUAUAUAUCGGCAUUUAGUUAGGACCGGGCCUGGUGGUG [wwwrcmullin] | 424 nM | 316 nM | 360 nM | 367 nM | 337 nM
GUUACGCAUGGAAGGAGCGCACUCCGGUUGAUCAACACAGUGAUGUUGUGGUUCAUUCGAAUGCAGGUAGGUCGCCAUGUGUAAC [Ex Arginine B K4 16] | 877 nM | 724 nM | 1100 nM | 858 nM | 825 nM
GUUACGCAUGGAAGGAGCGCUCUCCGGCUUAAUAACACAGUGAUGUUGUGAAUUUGCCGAAAGCAGGUAGGUCGCCAUGUGUAAC [Ex Arginine B K4 10] | 474 nM | 359 nM | 453 nM | 435 nM | 413 nM
GUUUGGCUCCGAAGACGGCAGUGGGAAAUAUAGGAUAUCUAGAAAUAGAGAAGGAUACUAGUGAUGUUAGUAUCGGAUAAAACAA | 85.9 nM | 76.3 nM | 73 nM | 83.7 nM | 79.8 nM
GUUUUAUAGGAGGAUACCAGUACAAAUAAAGUGCAUUAAUAGUAGAGUGAUGUUCUAAAGUACCCUUGGCAGCUUAGUUUAAGUU [#26 K4 Theophylline B Exclusion] | 151 nM | 278 nM | 185 nM | 357 nM | 100 nM
UAACGGCCCAGUGAUGUUGGGUGGAGGCGGCGAGGACCGGUACGGCCGCCACUCGGCGCACAGGCGGAGUGAUGUUGCGCGUAAA [Same State Tryptophan A GF 13] | 242 nM | 164 nM | 319 nM | 182 nM | 215 nM
UAACUGAAGUGAUGUUUCAGUUCGUCGGAUACCAGUGCCGAUCAUCACCCUUGGCAGCCGUAAUAUUACUUAACAAUGACAGGUU [theeternabot_exclusion_KL_Theo_A_7] | 122 nM | 107 nM | 118 nM | 119 nM | 108 nM
UAAGUGAUUCACAAGCUAGAGUUACUCGAAGGAGCGACGAAUUCGUCAGGUAGGUCGCGAGUGAUGUUCGCAUGCUCUAGCAAAU [AK1 Exc Arginine A] | 655 nM | 681 nM | 704 nM | 689 nM | 650 nM
UACAAACGUAGUGAUGUUACGUACUCUGAUACCAGACAAGUGUAAGUCCCUUGGCAGCAGUCAUUUUGCUUAUUAUUUUCUCAAA [JR_ExcTheophyA_Sub019] | 70.1 nM | 88.1 nM | 74.1 nM | 86.4 nM | 68.1 nM
UACUAGUGAAACUAGUAGGUGCUAGGUGAAGGAGCGAUCGAAAGAUCAGGUAGGUCGCACCUUCCUGAGUGAUGUUCAGGUAAUA [KL-SSArg-A3] | 47.2 nM | 29.6 nM | 44.5 nM | 59.1 nM | 40.9 nM
UAGCAUUUGCUCGAGUGAUGUUCGAGCGAAGGAGCGCGAGAAAUCGCAGGUAGGUCGCGCUCGAACUAUGAGCGAUCAUUUAUUA [Arg A Ex t2c] | 284 nM | 217 nM | 244 nM | 463 nM | 370 nM
UAUAGAGUGACGGCCGCCACUAUUGUGAUUUAAUUGUUAGAGUGAUGUUUUGAUGUUUGAUUUUGUAGGACCGGGUUAUAUGUUA [wwwzmullin] | 1090 nM | 720 nM | 890 nM | 795 nM | 718 nM
UAUCAGAUUACUGAUACCAGUCUAAAGACAGUGAUGUUGUCUGAUCGACCACGAUCAAAGGACCCUUGGCAGCAGUAUACUAUUC [Theo B SS t5] | 163 nM | 157 nM | 157 nM | 164 nM | 158 nM
UAUCCUCGCUGAAGGAGCGAGCAUGAAGCAGUGAUGUUCCGAGCGAGUGAUGUUCGCAUAGCUCAGGUAGGUCGCAGUGGGAUUU [Same State Arginie B GF 17] | 795 nM | 749 nM | 1030 nM | 517 nM | 530 nM
UAUCUAUGCUCGGCCGCCACUAGGACCGGGAGGUAACUAGUGAUGUUAGUAUCUUCGGCCGCCACUAGGACCGGGAGUGUAGAUA [KL-SSTryp-B17 #DoubleAptamer] | 115 nM | 95.2 nM | 92.7 nM | 95.5 nM | 74.6 nM
UAUCUUUGCUGAAGGAGCGAGCAUGUUGGAGUGAUGUUCCGUGCGAGUGAUGUUCGCAUAGCUCAGGUAGGUCGCAGUGGGAGGA [KL-SSArg B29] | 120 nM | 94.7 nM | 105 nM | 157 nM | 86.2 nM
UAUUGAGUGAUGUUCGAUAACCAAUCAGAUACCAGUUUUGUAGAAAACCCUUGGCAGCUGCUCAGCUCUAUAAUGCUUCGCCCUU [theeternabot_sameState_KL_Theo_A_18] | 199 nM | 169 nM | 208 nM | 184 nM | 177 nM
UAUUGAUUGUCAGGAUAUCGUAAACGAGUGAUGUUCGUAUAUUGACGAUAGUCAAUUCUAUCUGAACGAGAAGGGACAUUAUUUA [JR_SSFMNB_Sub009] | 318 nM | 301 nM | 389 nM | 351 nM | 308 nM
UAUUUAAAUAAAAUAAAAUAAAUUGCUGAUACCAGAGUCAAUUGACUCCCUUGGCAGCGGAUCGAGUGAUGUUCGUAAAAUUUAU [AK2.1 SS Theophylline A] | 27.4 nM | 57.7 nM | 30.8 nM | 58.5 nM | 31.9 nM
UCACUACACUGAAGGAGCGUGAGGAGACUAGUGAUGUUGGUCAGAUUCUAUGAUCGUAACUCACAGGUAGGUCGCAGUGUAGUGU [Arg B SS t7] | 514 nM | 341 nM | 518 nM | 378 nM | 476 nM
UCAUGAGAGACGGCCGCCACUGAAGCAGCUCUGUAAGAGCUGCAACAGUAGAGUGAUGUUCUGCGCAGGACCGGGUCGUCAUGAA [KL-SSTryp-B9] | 513 nM | 206 nM | 398 nM | 352 nM | 450 nM

Sequence | apparent KD of K4 kissing-loop reporter (input ligand: FMN 200 uM) | apparent KD of K4 kissing-loop reporter (input ligand: arginine 13.2 mM) | apparent KD of K4 kissing-loop reporter (input ligand: none) | apparent KD of K4 kissing-loop reporter [1] | apparent KD of K4 kissing-loop reporter [2]
UCCUAGGUCUUCAGGCGAAAGCCCUGCGAAGGAGCGUGCGAAAGCACAGGUAGGUCGCGCAGUGAUGUUGCACCUAGGUAAUAAA [#SwitchBubble 21 #K4Late] | 843 nM | 111 nM | 268 nM | 115 nM | 140 nM
UCCUGCAAUCGACCACGAAAGUGGAUUGAUACCAGAGUCGAAAGACUCCCUUGGCAGCGAGUGAUGUUCGAAGCAGGUAAAUAAA | 626 nM | 455 nM | 539 nM | 457 nM | 426 nM
UCCUGUUGUCAGCCACGAAAGUGGAUUGAUACCAGAGUCGAAAGACUCCCUUGGCAGCGAGUGAUGUUCGCAGCAGGUAAAUAAA [MatMod 4 - Jieux - Exclusion - Theophylline A] | 211 nM | 157 nM | 209 nM | 207 nM | 178 nM
UCGAACGAUGGAAGGAGCGCUCGUCAGCCCUGCGAGUGAUGUUCGUGGGUAAAUAGUCGCGAGCAGGUAGGUCGCCAUCUUGAGC [Zainsotima] | 123 nM | 101 nM | 129 nM | 119 nM | 124 nM
UCGGACCCUGGAGGAUAUGAGUCGAGUGAUGUUCGGCGGUCCAUGCCGGUGCGGCGUUAUGCCCUUUUAGAAGGCCAGGGUCCGA [#2 Exclusion - FMN B Attempt #11 (HarryS)] | 277 nM | 159 nM | 196 nM | 207 nM | 212 nM
UCGGGAGGCCGAAGGAGCGCCGCCAGUGAUGUUGGGAGUUAGAUACCAGUGAUGUUGGGCCGGCAGGUAGGUCGCGGCCGCGGAU [Exclusion Arginine B Gf 18] | 201 nM | 106 nM | 147 nM | 168 nM | 153 nM
UCGUCCGGAUUACUCGUGGUCAUGGUCGAUACCAGUAGAUUAAUCUACCCUUGGCAGCGACAUGAGUGAUGUUCAUGUGCAAUGA [KL-XTheo-A6 #analogue] | 383 nM | 341 nM | 360 nM | 492 nM | 383 nM
UCUUUACCGGGAAGGAGCGUGAAUGAGAAUGGAUAUAGUGAUGUUAUGUAUACGAACGAAUCGCAGGUAGGUCGCCCGGAUCCCU [SSArgB.aB] | 1150 nM | 316 nM | 643 nM | 685 nM | 485 nM
UGACAUUGCUCAGAUACCAGACAUGAGCAUCAGCCAUGUGCCAAAUACGUACAAAUAAAUGUCCCUUGGCAGCUGAGCAAUGUCU [TheoBX 12] | 66.7 nM | 30.7 nM | 37.5 nM | 80 nM | 44.4 nM
UGACAUUGCUCAGAUACCAGACCUGAGGAUCACCCAGGUGCCAAAACGUACUAAAUAAAGGUCCCUUGGCAGCUGAGCAAUGUCU [TheoBX 13] | 63.6 nM | 38.9 nM | 27.3 nM | 101 nM | 65.4 nM
UGACAUUGCUCAGAUACCAGUCAUGAGGAUCACCCAUGGGCCAAAACGUACUAAAUAAAUGACCCUUGGCAGCUGAGCAAUGUCU [TheoBX 13] | 116 nM | 36.9 nM | 37.7 nM | 165 nM | 72 nM
UGACGUAAAACCGUCGAAUCGCUGUGAGAAGGAGCGGUAAAAUUGCCAGGUAGGUCGCUCACAGCCUCACAGUGAUGUUGUGGGA [Sovetequ] | 468 nM | 104 nM | 246 nM | 199 nM | 162 nM
UGACUACAAAGGAAAUAAUCCUAGUGAUGUUAGGAUAUGCUGAUAAGCAGAAGGAACUGAGAUCGAAAGAUCUCAAAUGUAGUCU [FmnAX 26 Mat Inspired #SwitchBubble #StaticStem #K4Early] | 131 nM | 90.1 nM | 84.9 nM | 96.6 nM | 88.2 nM
UGACUGGACUGAAGGAGCGAGCGAGACAAAGUCUCGAAAUCCUAGUGAUGUUAGGAAAUAACUCAGGUAGGUCGCAGUCUAGUCU [ArgBS 9 #SwitchBubble #StaticStem] | 181 nM | 152 nM | 175 nM | 170 nM | 173 nM
UGACUGGACUGAAGGAGCGCGCGAGACAAAGUCUCGAACUUCUAGUGAUGUUAGAAAAUAACGCAGGUAGGUCGCAGUCUAGUCU | 165 nM | 137 nM | 152 nM | 147 nM | 147 nM
UGACUGGACUGAAGGAGCGCUAAAACUCCUAGUGAUGUUGGGAAAUAAGAGACAAAGUCUCAGCAGGUAGGUCGCAGUCUAGUCU [ArgBS 24 #SwitchBubble #StaticStem] | 481 nM | 462 nM | 503 nM | 657 nM | 526 nM
UGACUGGACUGAAGGAGCGCUGAAGGAGCGUAAGUAGUGAUGUUGCUUACAGGUAGGUCGCAGCAGGUAGGUCGCAGUCUAGUCU | 45.3 nM | 37.1 nM | 56.6 nM | 44.3 nM | 43.7 nM
UGACUGGAUGGAAGGAGCGCUAAACUCCUAGUGAUGUUAGGGAUACGAGACAAAGUCUUGAGGCAGGUAGGUCGCCAUCUAGUCU [FiskerMod 11 - Jieux - Same State - Arginine B] | 162 nM | 130 nM | 147 nM | 157 nM | 138 nM
UGACUGGAUUGAAGGAGCGCUAAACUCCUAGUGAUGUUAGGGACACAAGACAAAGUCUUGAGGCAGGUAGGUCGCAAUCUAGUCU [FiskerMod 5 - Jieux - Same State - Arginine B] | 345 nM | 253 nM | 288 nM | 310 nM | 265 nM
UGACUUGCCUGAGGAUAUCUAGGAUAUCCAUAAAAGAAAAUAAUAAUCCAGUGAUGUUGGAGAAGGAGAGAAGGCAGGUAAGUCU [KL-XFMN-B17 #DoubleAptamer #SwitchBubble] | 176 nM | 114 nM | 119 nM | 112 nM | 119 nM
UGAGGAGAAUAUGAUACCAGCAGAGAGAGAGAGGAAGUAUAGUGAUGUUAUAUGAGAGAAUGCCCUUGGCAGCAUAAGAAGAAGG [SSTheophylB.B] | 148 nM | 121 nM | 142 nM | 129 nM | 125 nM
